Source: article PMC10063446 (Nature Immunology, 2023)
Residue numbers refer to the chain shown, from its start. In names and notes the source's numbering stands.

B1: P2-1G9 (antibody, V domains shown)
VH: EVQLVESGGGLVQPGGSLRLSCAASGFTFSTYWMSWVRQAPGKGLEWVANIKQDGSDKYYVDSVKGRFTISRDNAKNSLYLQMNSLRVEDTAVYYCARDLGILWFGELPNFDPWGQGTLVTVSS
VL: DIQMTQSPSSLSASVGDRVTITCRASQGISNSLAWYQQKPGKAPKLLLYAASTLESGVPSRFSGSGSGTDYTLTISSLQPEDFATYYCQQYYSPPPRTFGQGTKVEIK
B2: P2S-2E8 (antibody, V domains shown)
VH: B1 VH with T31S, D57E, V88A
VL: B1 VL with T53R, P94T
B3: P186-2C12 (antibody, V domains shown)
VH: EVQLVESGGGVVRPGGSLRLSCAASGFTFDDYGMSWVRQAPGKGLEWVSGIYWNGGITGYADSLKGRFTISRDNAKNSLYLQMNSLRAEDTALYHCARDRGSGYYIFDYWGQGTLVTVSS
VL: not shown
B4: P186-2A8 (antibody, V domains shown)
VH: EVQLVESGGGLVQPGRSLRLSCAASGFTFDDYAMHWVRQAPGKGLEWVSGISWNSGSISYADSVKGRFTISRDNAKNSLYLQMNSLRAEDTALYYCAKALVGGHKYYYGMDVWGQGTTVTVSS
VL: not shown
B5: P195-1B8 (antibody, V domains shown)
VH: QVTLRESGPALVKPTQTLTLTCTFSGFSLSTSGMCVSWIRQPPGKALEWLALIDWDDDKYYSTSLKTRLTISKDTSKNQVVLTMTNMDPVDTATYYCARSWVGGGVDVWGQGTTVTVSS
VL: not shown
B6: P10S-1G4 (antibody, V domains shown)
VH: QVQLQESGPGLVKPSQTLSLTCTVSGDSISSGDYYWIWIRQHPGKGLEWIGYIYYSGSTYYNPSLKSRVTISVDTSKNQFSLKLSSVTAADTAVYYCARVEYCSGGSCRRHNWFDPWGQGTLVTVSS
VL: QSVLTQPPSVSGAPGQRVTISCTGSSSNIGAGYDVHWYQQLPGTAPKLLIYGNSNRPSGVPDRFSGSKSGTSASLAITGLQAEDEADYYCQSYDSSLSGVVFGGGTKLTVL
B7: P195-2B9 (antibody, V domains shown)
VH: QVQLQESGPGLVKPSETLSLTCTVSGGSSSSHFWSWIRQPPGKGLEWIGYIYYGGNTNYNPSLKSRVTISVDTSKSQFSLKLSSVTAADTAVYYCARHHYYYDSSDFRLKAGYYFDYWGQGTLVAVSS
VL: B6 VL with Y51F, G52D, S54N, N55D, G70D, S98I, G99S, V100W, V110L
B8: P5S-2G8 (antibody, V domains shown)
VH: QMQLVQSGAEVKKTGSSVKVSCKASGSTFTHRYLHWVRQAPGQALEWMGWITPFNGDTNYAQKFQDRVTITRDGSMSTVYMDLSSLRSEDTAMYYCAAGARWGDSYYYYGMDVWGQGTAVTVSS
VL: QSALTQPPSASGSPGQSVTISCTGTSSDVGGYNYVSWYQQHPDKAPKLMIYEVSKRPSGVPDRFSGSKSGNTASLTVSGLQAEDEADYYCSSYAGNNNLVFGTGTKVTVL
B9: P5-2B9 (antibody, V domains shown)
VH: EVQLVQSGAEVKKPGESLKISCKGSGHSFTSFWIGWVRQMPGKGLEWMGIIYPGDSETRYSPSFQGQVTISVDKSIFTAYLQWSSLKASDSAMYYCARISGKGVGWFDPWGQGTLVTVSS
VL: SYVLTQPPSVSVAPGQTARITCGGNNIGSKSVHWYQQKPGQAPVLVIYYDSDRPSGIPERFSGSNSGNTATLTISRVEAGDEADYYCQVWHSSSDHVVFGGGTKLTVL
B10: P5S-1B11 (antibody, V domains shown)
VH: QVQLVQSGAEVKKPGASVKLSCRASGYTFTSYFMHWVRQAPGQGLEWMGVINPGGGGTSYAQKFQGRVTMTRDTSTSTVYMELSSLRSEDTAVYYCARYYDSIDNFDYWGQGTLVTVSS
VL: DIQMTQSPSSLSASVGDRVTITCRASQGIRNDLGWYQQKPGKAPKCLIYAASSLQSGVPSRFSGSRSGTEFTLTISSLQPEDFATYYCLQHNTYPQLTFGGGTKVEIK
B11: P2-1B1 (full IgG1) (antibody, V domains shown)
VH: QVQLVQSGAEVKRPGSSVKVSCKASGGTFSSYAISWVRQAPGQGPEWMGGIIPIFGTPHNAQKFQGRVTITADESTSTAYMELSSLRSEDTAMYYCSRTKGDILTGYTDYYFDSWGQGTLVTVSS
VL: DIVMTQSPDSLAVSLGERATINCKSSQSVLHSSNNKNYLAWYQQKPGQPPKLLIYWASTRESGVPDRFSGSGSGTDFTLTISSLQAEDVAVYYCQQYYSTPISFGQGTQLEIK
B12: P5-1H1 (full IgG1) (antibody, V domains shown)
VH: EVQLVESGGGLIQPGGSLRLSCAASGITVSSNYMTWVRQPPGKGLEWVSVIYSGGSTFYADPVKGRFTISRDNSRNTLYLQMNSLRAEDTAVYYCARDLQVYGMDVWGQGTTVTVSS
VL: DIQLTQSPSFLSASVGDRVTITCRASQGISNFLAWYQQKPGKAPKLLIYAASTLQGGVPSTFSGSGSGTEFTLTISSLQPEDFATYYCQHLNDYPLFGGGTRVEIK
B13: P5-1C8 (full IgG1) (antibody, V domains shown)
VH: EVQLVESGGGLIQPGGSLRLSCAASEIIVSRNYMNWVRQAPGKGLEWVSVIYSGGSTFYADSVKGRFTISRDNSENTLYLQMNSLRAEDTAVYYCARGYGDYYFDYWGRGTLVTVSS
VL: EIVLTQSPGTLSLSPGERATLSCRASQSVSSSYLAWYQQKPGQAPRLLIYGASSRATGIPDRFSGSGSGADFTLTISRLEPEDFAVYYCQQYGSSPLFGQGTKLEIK
B14: P5-1H1 Fab (Fab, V domains shown)
VH: B12 VH
VL: B12 VL

What follows are binders tested against T1, recombinant RBD protein of wild-type SARS-CoV-2 (ELISA antigen) (SARS-CoV-2 wild-type, UniProt P0DTC2) (assay: not given). Conditions: not given.

Binder | binding result
B1 | binds
B2 | binds
B3 | binds
B4 | binds
B5 | binds
B6 | binds
B7 | binds
B8 | binds
B9 | binds
B10 | binds

These binders were tested against recombinant wild-type SARS-CoV-2 S trimer (ELISA antigen) (SARS-CoV-2 wild-type, UniProt P0DTC2) (assay: not given). Conditions: not given.

Binder | binding result
B1 | binds
B2 | binds
B3 | binds
B4 | binds
B5 | binds
B6 | binds
B7 | binds
B8 | binds
B9 | binds
B10 | binds

The binders below were run against SARS-CoV-2 RBD immobilised on the CM5 chip (SARS-CoV-2 wild-type (assumed)) (assay: SPR). Conditions: both partners purified.

Binder | binding result
B11 | binds
B12 | binds
B13 | binds

These binders were tested against T1, recombinant RBD protein of wild-type … (assay: ELISA). Conditions: one partner purified.

Binder | binding result
B11 | binds
B12 | binds
B13 | binds

These binders were tested against T2, SARS-CoV-2 wild-type RBD (SARS-CoV-2 wild-type) (assay: crystal structure). Conditions: both partners purified.
T2 construct: also called WT-RBD

Binder | binding result
B14 | binds
